Laboratory results taken from patent US20230295275A1 (FLAGSHIP PIONEERING INNOVATIONS VI, published 2023).
Positions count from the first letter of the chain named. Where two headings read alike, the source gives them in different places.

B1: AB-1 full-length IgG1 (antibody, V domains shown)
VH: QMQLVQSGTEVKKPGESLKISCKGSGYGFITVWIGWVRQMPGKGLEWMGIIYPGDSETRYSPSFQGQVTISADKSINTAYLQWSSLKASDTAIYYCAGGSGISTPMDVWGQGTTVTVSS
VL: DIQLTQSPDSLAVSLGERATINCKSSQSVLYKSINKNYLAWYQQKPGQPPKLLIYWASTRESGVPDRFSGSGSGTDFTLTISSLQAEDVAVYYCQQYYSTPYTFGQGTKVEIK
B2: AB-2 full-length IgG1 (antibody, V domains shown)
VH: B1 VH with Y27S, F29T
VL: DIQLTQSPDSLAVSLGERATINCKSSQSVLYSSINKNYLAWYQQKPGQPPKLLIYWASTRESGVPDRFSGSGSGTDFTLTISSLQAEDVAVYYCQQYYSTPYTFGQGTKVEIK
B3: AB-11 IgG1 (antibody, V domains shown)
VH: B1 VH with Q1E, M2V, T9A, Y27S, Q65E, N77S, I93M
VL: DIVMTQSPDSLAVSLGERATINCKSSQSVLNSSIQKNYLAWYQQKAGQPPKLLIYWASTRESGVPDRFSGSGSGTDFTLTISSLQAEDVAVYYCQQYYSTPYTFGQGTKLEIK
B4: AB-12 IgG1 (antibody, V domains shown)
VH: B1 VH with Q1E, M2V, T9A, Y27S, G35S, N77S, I93M
VL: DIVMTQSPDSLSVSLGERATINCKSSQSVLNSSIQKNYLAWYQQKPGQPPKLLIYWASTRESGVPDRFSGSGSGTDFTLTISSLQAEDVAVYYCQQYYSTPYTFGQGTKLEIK
B5: AB-8 IgG1 (antibody, V domains shown)
VH: B1 VH with Q1E, M2V, T9A, Y27S, S61N, P62Q, Q65K, N77S, I93M, T114M
VL: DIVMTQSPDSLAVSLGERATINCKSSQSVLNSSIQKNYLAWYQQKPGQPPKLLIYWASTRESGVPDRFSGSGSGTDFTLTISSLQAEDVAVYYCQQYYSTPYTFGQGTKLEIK
B6: AB-10 IgG1 (antibody, V domains shown)
VH: B1 VH with Q1E, M2V, T9A, E16G, Y27S, N77S, I93M
VL: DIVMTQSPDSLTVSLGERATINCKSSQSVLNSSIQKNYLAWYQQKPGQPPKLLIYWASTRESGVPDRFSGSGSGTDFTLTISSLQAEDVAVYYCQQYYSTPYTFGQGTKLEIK
B7: AB-7 full-length IgG1 (antibody, V domains shown)
VH: B1 VH with Y27S, V32Y, S103Y
VL: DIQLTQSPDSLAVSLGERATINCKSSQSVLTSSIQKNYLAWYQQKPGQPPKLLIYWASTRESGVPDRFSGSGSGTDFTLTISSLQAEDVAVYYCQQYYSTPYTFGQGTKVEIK
B8: AB-13 IgG1 (antibody, V domains shown)
VH: B1 VH with Q1E, M2V, T9A, Y27S, I70L, N77S, I93M, Q111K
VL: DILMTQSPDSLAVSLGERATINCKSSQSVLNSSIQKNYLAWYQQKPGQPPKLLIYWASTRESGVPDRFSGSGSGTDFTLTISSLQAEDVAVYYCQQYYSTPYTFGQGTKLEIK
B9: AB-4 full-length IgG1 (antibody, V domains shown)
VH: B1 VH with Y27S, V32Y, S103H
VL: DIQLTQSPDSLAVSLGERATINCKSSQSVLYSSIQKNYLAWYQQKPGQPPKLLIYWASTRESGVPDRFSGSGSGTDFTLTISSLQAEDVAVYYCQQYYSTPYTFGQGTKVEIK
B10: AB-9 IgG1 (antibody, V domains shown)
VH: B1 VH with Q1E, M2V, T9A, K23Q, Y27S, N77S, I93M
VL: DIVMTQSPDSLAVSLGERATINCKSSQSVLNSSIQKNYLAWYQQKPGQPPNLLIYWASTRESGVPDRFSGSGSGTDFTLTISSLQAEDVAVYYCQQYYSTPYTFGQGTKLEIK
B11: AB-6 full-length IgG1 (antibody, V domains shown)
VH: B1 VH with Y27S, F29L, S103Y
VL: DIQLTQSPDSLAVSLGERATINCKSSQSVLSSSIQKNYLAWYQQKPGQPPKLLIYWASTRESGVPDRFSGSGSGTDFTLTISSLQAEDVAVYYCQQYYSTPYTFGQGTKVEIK
B12: AB-3 full-length IgG1 (antibody, V domains shown)
VH: B1 VH with Y27S
VL: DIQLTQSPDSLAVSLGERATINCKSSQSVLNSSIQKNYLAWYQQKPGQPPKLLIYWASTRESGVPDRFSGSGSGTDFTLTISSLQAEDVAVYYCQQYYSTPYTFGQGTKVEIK
B13: AB-5 full-length IgG1 (antibody, V domains shown)
VH: B1 VH with Y27S, V32Y, S103Y
VL: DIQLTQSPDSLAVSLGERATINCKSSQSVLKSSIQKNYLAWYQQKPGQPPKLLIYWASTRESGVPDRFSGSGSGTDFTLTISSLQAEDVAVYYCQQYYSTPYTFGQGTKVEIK

Experiments:
[1] = target: T1, SARS-CoV-2 receptor binding domain (RBD) (SARS-CoV-2, UniProt P0DTC2 319-527); test: BLI (Octet Red96e), IgG1 on AHC biosensors, RBD in solution
[2] = target: SARS-CoV-2-Spike (wildtype, on virus) (SARS-CoV-2, UniProt P0DTC2 14-1273); test: cell-based or functional assay
[3] = target: T1, SARS-CoV-2 receptor binding domain (RBD); test: BLI (Octet), IgG on anti-human Fc biosensors, RBD in solution
[4] = target: T1, SARS-CoV-2 receptor binding domain (RBD)
[5] = target: T1, SARS-CoV-2 receptor binding domain (RBD); test: BLI (Octet Red96e), IgG on AHC biosensors, RBD in solution
[6] = target: T1, SARS-CoV-2 receptor binding domain (RBD); test: DELFIA, RBD coated on plate, IgG1 in solution

| Binder | Kd [1] [nM] | Req [1] [nm shift] | Response [1] [nm] | kobs [1] [s⁻¹] | koff [1] [s⁻¹] | kon [1] [M⁻¹ s⁻¹] | Kd [4] [nM] | binding result [6] | further results |
| --- | --- | --- | --- | --- | --- | --- | --- | --- | --- |
| B1 | 3.3 | 0.98 | 1.06 | 0.023 | 0.00074 | 220000 | 14.6 |  | Neutralization (ng/mL), Authentic Virus IC50 [2]: 14200 ng/mL; Neutralization (ng/mL), Authentic Virus IC80 [2]: 25000 ng/mL; Neutralization (ng/mL), Pseudovirus IC50 [2]: 142 ng/mL; Kd [3]: 9.5 nM; Kd [5]: 9.5 nM; koff [5]: 0.0091 s⁻¹; kon [5]: 960000 M⁻¹ s⁻¹ |
| B2 |  |  |  |  |  |  | 84.9 |  | Neutralization (ng/mL), Authentic Virus IC50 [2]: 25000 ng/mL; Neutralization (ng/mL), Authentic Virus IC80 [2]: 25000 ng/mL; Neutralization (ng/mL), Pseudovirus IC50 [2]: 324 ng/mL |
| B3 |  |  |  |  |  |  |  | binds |  |
| B4 |  |  |  |  |  |  |  | binds |  |
| B5 |  |  |  |  |  |  |  | binds |  |
| B6 |  |  |  |  |  |  |  | binds |  |
| B7 | 1.5 | 0.55 | 0.591 | 0.024 | 0.00036 | 230000 |  |  |  |
| B8 |  |  |  |  |  |  |  | binds |  |
| B9 |  |  |  |  |  |  | 36.1 |  | Neutralization (ng/mL), Pseudovirus IC50 [2]: 86.5 ng/mL |
| B10 |  |  |  |  |  |  |  | binds |  |
| B11 | 0.96 | 0.48 | 0.485 | 0.031 | 0.00029 | 300000 |  |  |  |
| B12 | 4.5 | 1.3 | 1.42 | 0.022 | 0.00096 | 210000 | 38.8 |  | Neutralization (ng/mL), Authentic Virus IC50 [2]: 25000 ng/mL; Neutralization (ng/mL), Authentic Virus IC80 [2]: 25000 ng/mL |
| B13 | 0.3 | 1.8 | 1.84 | 0.012 | 3.6e-05 | 120000 |  |  |  |
